Measurements as given in the nanobody polyreactivity screen of Harvey et al. (2022).

Test: yeast display, Sf9 membrane polyspecificity reagent, FACS + sequencing; frameworks hold sequencing errors
Method in brief: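 Nanobodies came from a synthetic yeast display library in Saccharomyces cerevisiae BJ5465, induced with galactose for 36–48 hours and stained for 1 hour at 4 °C with 10% biotinylated, detergent-solubilized Sf9 membrane reagent. Cells were enriched on streptavidin microbeads and then FACS-sorted, with low and high (top ~1%) gates set on anti-HA fluorescence for expression and streptavidin fluorescence for reagent binding. Each polyreactivity label reflects the gate a clone came from. Genes were amplified by colony PCR, sequenced by MiSeq 2 × 250 and filtered by CDR length.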

Row | Sequence | polyreactivity (PSR sort gate)
1 | QVQLVESGGGLVQAGGSLRLSCAASGIIFDYYDMGWYRQAPGKERELVAAISAGGGSTYYADSVKGRFTISRDNAKNTVYLQMNSLKPEDTAVYYCAALYWRSTVGAYSTYEYDYWGQGTQVTVSS | high polyreactivity
2 | QVQLVESGGGLVQAGGSLRLSCAASGIIFEGYAMGWYRQAPGKERELVAGITIGDITYYADSVKGRFTISRDNAKNTVYLQMNSLKPEDTAVYYCAADSYYYQTAYDSWGQGTQVTVSS | low polyreactivity
3 | QVQLVESGGGLVQAGGSLRLSCAASGIIFESNAMGWYRQAPGKERELVAAITGRGGRTYYADSVKGRFTISRDNAKNTVYLQTNSLKPEDTAVYYCAADGLRLVPGYKYDYWGQGTQVTVSS | high polyreactivity
4 | QVQLVESGGGLVQAGGSLRLSCAASGIIFESYAMGCYRQAPGKERELVAAISSRGGSTYYADSVKGRFTISRDNSKNTVYLQMNSLKPEDTAVYYCAADVAAGVSSYPTKYSYDYWGQGTQVTVSS | low polyreactivity
5 | QVQLVESGGGLVQAGGSLRLSCAASGIIFEYYAKGWYRQAPGKERELVAAITSDGSTNYADSVKGRFTISRDNEKNTVYLQMNRLKPEDTAVYYCNADLKANIQGVLSTGDDYWGQGTQVTVSS | low polyreactivity
6 | QVQLVESGGGLVQAGGSLRLSCAASGIIFEYYAMVWYRQAPGKDRELVAAISRSSVSTYYADSVKGRFTISRDNAKNTVYLQMNSLKPEDTAVYYCAARQGYGYYKYGKYYYWGQGTQVTVSS | high polyreactivity
7 | QVQLVESGGGLVQAGGSLRLSCAASGIIFFIYAMGWYRQAPGKERELVATISWTGGSTYYADSVKGRFTISRDNAKNTVYLQMNSLKPEDTAVYYCNADEWRWDEIIPYAVDYWGQGTQVTVSS | low polyreactivity
8 | QVQLVESGGGLVQAGGSLRLSCAASGIIFFSNAMGWYRQAPGKERELVAAIDDSDGVTYYADSVKGRFTISRDNAKNTVYLQMNSLKPEDTAVYYCAAVDGWTYTGSDYWGDGTQVTVSS | low polyreactivity
9 | QVQLVESGGGLVQAGGSLRLSCAASGIIFGFYAMGWYREAPGKERELVADITNDGGNTNYADSVKGRFTISRDNAKNTVYLQMNSLKPEDTAVYYCNADRTQVRNRYTYATFDYWGQGTQVTVSS | low polyreactivity
10 | QVQLVESGGGLVQAGGSLRLSCAASGIIFGGYAMGWYRQAPGKERELVASISYSGGSTYYADSVKGRFTISRDNAKNTVYLQMNSLKPEDTAVYYCAAGYPRTPAAGYYWGQGTQVTVSS | high polyreactivity
11 | QVQLVESGGGLVQAGGSLRLSCAASGIIFGHYAMGWYRQAPGKERELVAAIRSSGGTTYYADSVKGRFTISRDNAKNTVYLQMNRLKPEDTAVYYCAKRGVHLYHDYYWGQGTQVTVSS | low polyreactivity
12 | QVQLVESGGGLVQAGGSLRLSCAASGIIFGHYDMGWYRQAPGKERELVAAITFTGDSTYYADSVKGRFTISRDKAKNTVYLQMTSLKPEDTAVYYCAAETPVPWGSWGYDYWGQGTQVTVSS | low polyreactivity
13 | QVQLVESGGGLVQAGGSLRLSCAASGIIFGIYDMGWSRQAPGKERELVAAIRRSGGSTYYADSVKGRFTISRDNAKNTVYLQMNSLKPEDTAVYYCAATRHSRVRGGDYWGQGTQVTVSS | low polyreactivity
14 | QVQLVESGGGLVQAGGSLRLSCAASGIIFGKNAMGWYRHAPGKERELVAAISSSGGSTYYADSVKGRFTISRDNAKNTVYLQMNSLKPEDTAVYYCATERGSRRSGSRMDYWGQGTQVTVSS | high polyreactivity
15 | QVQLVESGGGLVQAGGSLRLSCAASGIIFGQYAMGGYIQAPGKEREFVSAISRSGGSTNYADSVKGLFTISRDNAKNTVYLQMNSLKPEDTAVYYCNKRARHTGDFVWGHGYWGQGTQVTVSS | low polyreactivity
16 | QVQLVESGGGLVQAGGSLRLSCAASGIIFGRNAMGWYRQAPGKERELVAAIRWSGGSTYYADSVKGRFTISRDNAKNTVYLQMNSLKPEDTAVYYCAKRYSYWSGVKYGYWGQGTQVTVSS | high polyreactivity
17 | QVQLVESGGGLVQAGGSLRLSCAASGIIFGRNVMGWYRQAPGKERELVAAITRRGVNTYYADSVKGRFTISRDNAKNTVYLQMNSLKPEDTAVYYCAATWWQYDQGLHRYDYWGQGTQVTVSS | high polyreactivity
18 | QVQLVESGGGLVQAGGSLRLSCAASGIIFGRYAMGWYRQAPGKERELVAAITRGGSTKYADSVKGRFTISRDNAKNTVYLQMNSLKPEDTAVYYCARVRRYPLRYNYWGQGTQVTVSS | high polyreactivity
19 | QVQLVESGGGLVQAGGSLRLSCAASGIIFGVNAMGWYRQAPGKERELVASITSGGSTNYADSVKGRFTISRDNAKNTVYLQMNSLKPEDTAVYYCNARWWAPGRPGDEINRILDYWGQGTQVTVSS | low polyreactivity
20 | QVQLVESGGGLVQAGGSLRLSCAASGIIFGWYAMGWYRQAPGKERELVAAINWSGTSTYYADSVKGRFTISRDNAKNTVYLQMNSLKPEDPAVYYCAAYFQKLPTTGYEYWGQGTQVTVSS | low polyreactivity
21 | QVQLVESGGGLVQAGGSLRLSCAASGIIFGYNAMGLYRQAHGKERELVASIDVSGGITYYADSVKGRFTISRDNAKNTVYLQMNSLKPEDTAVYYCAAAVYGRGSPHYYWGEGTQVTVSS | high polyreactivity
22 | QVQLVESGGGLVQAGGSLRLSCAASGIIFGYNVMGWYRQAPGKERELVAAISGSGSSTYYADSVKGRFTISRDNAKNTVYLQMNSLKPEDTAVYYCARQRYEYRTTYYYWGQGTQVTVSS | high polyreactivity

Row | Sequence | polyreactivity (PSR sort gate)
23 | QVQLVESGGGLVQAGGSLRLSCAASGIIFGYYAMGWYRQAPGKERELVAAINQDGSSTYYADSVKGRFTISRDNAKNTVYLQMNSLKPEDTAVYYCNARGVPRQDARMGYWGQGTQVTVSS | low polyreactivity
24 | QVQLVESGGGLVQAGGSLRLSCAASGIIFGYYAMGWYRQAPGKERELVAAISSIGGSTYYADSVKGRFTISRDNAKNTVYLQMNSLKPEDTAVYYCNAASSRWPEYDYWGQGTQVTVSS | high polyreactivity
25 | QVQLVESGGGLVQAGGSLRLSCAASGIIFHFNDMGWYRQAPGKERELVAAITSGGSTNYADSVKGRFTLSRDYAKKTVYLQMNSLKPEDTAVYYCNAEPPRGYTVSSGGEMDYWGQGTQVTVSS | low polyreactivity
26 | QVQLVESGGGLVQAGGSLRLSCAASGIIFHKYAMGWYRQAPGTERELVAAISRSGGRTYYADSVKGRFTISRDNAKNTVYLQMNSLKPEDTAVYYCAARYLKPGGAYDSWGQGTQVTVSS | high polyreactivity
27 | QVQLVESGGGLVQAGGSLRLSCAASGIIFHLYAMGWYRPAPGKERELVAAISWNGSSTYYADSVKGRFTISRDNAKNTVYLQMNSLKPEDTAVYYCAASYGYFEDYGYWGQGTQVTVSS | low polyreactivity
28 | QVQLVESGGGLVQAGGSLRLSCAASGIIFHPYAMGWYRQAPGKERELVAVITWPGDSTYYADSVKGRFRISRDNAKNTVYLQMNSLKPEDTAVYYCNVDAWGTSGELPYDYWGQGTQVTVSS | low polyreactivity
29 | QVQLVESGGGLVQAGGSLRLSCAASGIIFIGNAMGWYRQAPGKERELVAAISSDGDSTYYADSVKGRFTISRDNAKNTVYLQMNSLKPEDTAVYYCAKDYYPDYYGLYLWPFDYWGQGTQVTVSS | high polyreactivity
30 | QVQLVESGGGLVQAGGSLRLSCAASGIIFIKYAMGWYRQAPGKERELVAAITSGGSTHYADSVKGRFTISRDNAKNTVYLQMNSLKPEETAVYYCNADILRHVAYFKDRYQAGSYWGQGTQVTVSS | low polyreactivity
31 | QVQLVESGGGLVQAGGSLRLSCAASGIIFINYAMGWYRQAPGKERELVAAINSGGSTKYADSEKGRFTISRDNAKNTVYLLMNSLKPEDTAVYDCAAVPAGRYYWWLYYYWGQGTQVTVSS | high polyreactivity
32 | QVQLVESGGGLVQAGGSLRLSCAASGIIFIPYAMGWYRQAPGKEREFVAAISSSGGSTYYADSVKGRFTISRDNAKNTVYLQMNSLKPEDTSVYYCAAQYVSRRYSRYNYWGQGTQVTVSS | high polyreactivity
33 | QVQLVESGGGLVQAGGSLRLSCAASGIIFIPYAMGWYRQAPGKERELVASISKRGGRTYYADSVKGRFTISRDNAKNTVYLQMNSLKPEDTAVYYCAAYARYPVVYGVDYWGQGTQVTVSS | high polyreactivity
34 | QVQLVESGGGLVQAGGSLRLSCAASGIIFIVNSMGWYRQAPGKERELVADISENGGDTYYADSVKGRFTISRDNAKNTVYLQMNSLKPEDSAVYYCAKSGEPYTRFDYWGQGTQVTVSS | low polyreactivity
35 | QVQLVESGGGLVQAGGSLRLSCAASGIIFKLYAMGWYRQAPGKEREFVATITKTGGRTYYADSVKGRFTISRDNAKNTVYLQMNSLKPEDTAVYYCAARRVNGKMYYWGQGTQVTVSS | high polyreactivity
36 | QVQLVESGGGLVQAGGSLRLSCAASGIIFKLYAMGWYRQAPGKERELVAAITYRGGTTYYADSVKGRFTISRDNAKNTVYLQMNSLKPEDTAVYYCAADNTFRDDYFLYYLFNYNYWGQGTQVTVSS | low polyreactivity
37 | QVQLVESGGGLVQAGGSLRLSCAASGIIFKYNVMGWYRQAPGKERELVAAITDSGTSTFYADSVKGRFTISRDNAKNTVYLQMNSLKPEDTAVYYCAADEFSVFTIETYGYDYWGQGTQVTVSS | low polyreactivity
38 | QVQLVESGGGLVQAGGSLRLSCAASGIIFKYYAMGSYRQAPGKERELVAAITRSGGSTYYADSVKGRFTISRDNAKNTVYLQMNSLKPVDTGVYYCAAQTGYSYGITWQFTKYNYWGQGTQVTVSS | low polyreactivity
39 | QVQLVESGGGLVQAGGSLRLSCAASGIIFKYYAMGWYRQAPGKERELVAAISRSSGSTYYADSVKGRFTISRDNAKKTVYLQMNSLKPEDTAVYYCAASGWPQKYDYWGQGTQVTVSS | high polyreactivity
40 | QVQLVESGGGLVQAGGSLRLSCAASGIIFKYYSKGWYRQAPGKERELVAAITSGGSTNYADSVKGRFTISRDNAKNTVYLQMNSLKPEDTAVYYCAKRFYYRNRFDYWGQGTQETVSS | low polyreactivity
41 | QVQLVESGGGLVQAGGSLRLSCAASGIIFLANAMGWYRQAPGKERELVAAISLDGGRTYYADSVKGRFTISRDNAKNTVFLQMNSLKPEDTAVYYCAADYGYVILYEYWGQGTQVTVSS | low polyreactivity
42 | QVQLVESGGGLVQAGGSLRLSCAASGIIFLGYVMGWYRQAPGKERELVAAISSSGGRTYYADSVKGRFTISRDNAKNTVYLQMNSLKPEDTAVYYCATRTLQPGYTYPRYYWGQGTQVTVSS | high polyreactivity
43 | QVQLVESGGGLVQAGGSLRLSCAASGIIFLNNAMGLYIQAPGKERELVAVISFIGDSTYYADSVKGRFTISRDNSKNSVYLQMNSLKPEDTAVYYCAADYYLPYWFFVGYDYWGQGTQVTVSS | low polyreactivity
